Biological target: nucleosome: recombinant Xenopus laevis histone octamer assembled on 601 DNA with flanking DNA (Xenopus laevis)

“mutant INO80 complex purified from yeast lacking Arp5 (from UniProt P53115 1-1489; P40154 1-320; Q12386 1-881)” was tested, and the nucleosome sliding, native gel remodeling assay, kobs; 601 + 80 WT nucleosome was 0.006 min⁻¹.

Reference: PMC9351570
